From patent publication US20110256127A1 (Genentech, published 2011)
“And” between values parts separate entries of the source, which are not always exact repeats. Equal values may be shown once.

What was measured:
LRP6 on HEK293 cells = LRP6 on HEK293 cells (human, UniProt O75581 20-1613); assay: cell-based or functional assay
[1] = target: T1, LRP6 (human; form used in the assay not stated) (human, UniProt O75581 20-1253, limits assumed); assay: SPR (BIAcore), full length IgG; LRP6 construct not stated; affinity-matured clone, full length human IgG
T1 construct: probably an E3-E4 fragment for SPR
T1 sequence: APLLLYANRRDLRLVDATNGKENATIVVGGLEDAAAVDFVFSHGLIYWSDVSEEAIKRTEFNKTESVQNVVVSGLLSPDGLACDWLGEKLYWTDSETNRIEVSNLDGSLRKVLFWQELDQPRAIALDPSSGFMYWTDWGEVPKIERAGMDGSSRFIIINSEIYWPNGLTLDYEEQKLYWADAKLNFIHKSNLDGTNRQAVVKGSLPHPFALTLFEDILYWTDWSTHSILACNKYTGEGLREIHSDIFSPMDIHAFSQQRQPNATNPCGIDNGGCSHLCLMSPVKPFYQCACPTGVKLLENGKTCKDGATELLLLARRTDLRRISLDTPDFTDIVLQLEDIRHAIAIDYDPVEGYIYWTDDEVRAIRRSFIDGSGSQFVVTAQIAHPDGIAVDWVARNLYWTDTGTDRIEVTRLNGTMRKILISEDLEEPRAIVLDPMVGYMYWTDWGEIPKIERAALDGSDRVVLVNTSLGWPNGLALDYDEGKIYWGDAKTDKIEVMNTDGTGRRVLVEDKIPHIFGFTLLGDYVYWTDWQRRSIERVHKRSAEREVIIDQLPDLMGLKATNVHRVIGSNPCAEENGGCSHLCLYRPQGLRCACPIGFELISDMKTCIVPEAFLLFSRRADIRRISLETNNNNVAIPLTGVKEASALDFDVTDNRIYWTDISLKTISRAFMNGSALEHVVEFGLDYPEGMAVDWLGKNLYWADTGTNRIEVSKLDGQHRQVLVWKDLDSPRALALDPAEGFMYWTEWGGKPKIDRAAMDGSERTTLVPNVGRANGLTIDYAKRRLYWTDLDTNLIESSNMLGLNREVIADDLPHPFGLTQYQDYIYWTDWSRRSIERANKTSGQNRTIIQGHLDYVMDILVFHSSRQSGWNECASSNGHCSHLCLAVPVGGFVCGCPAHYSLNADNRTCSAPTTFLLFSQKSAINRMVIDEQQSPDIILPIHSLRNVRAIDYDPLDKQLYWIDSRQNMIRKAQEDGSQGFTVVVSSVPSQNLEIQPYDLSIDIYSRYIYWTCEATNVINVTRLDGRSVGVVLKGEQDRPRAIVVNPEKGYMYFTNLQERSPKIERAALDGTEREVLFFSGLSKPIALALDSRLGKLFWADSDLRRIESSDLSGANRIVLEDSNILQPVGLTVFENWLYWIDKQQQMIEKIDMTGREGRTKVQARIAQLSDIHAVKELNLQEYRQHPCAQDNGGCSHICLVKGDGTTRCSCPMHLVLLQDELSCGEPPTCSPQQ

[2] = target: T2, His-tagged LRP6.E3-E4 protein (human, UniProt O75581 629-1244); assay: phage competition ELISA, phage-displayed clone
T2 construct: also called LRP6.E3-4-His; printed once as LRP3.E3-E4; not shown: His tag
T2 sequence: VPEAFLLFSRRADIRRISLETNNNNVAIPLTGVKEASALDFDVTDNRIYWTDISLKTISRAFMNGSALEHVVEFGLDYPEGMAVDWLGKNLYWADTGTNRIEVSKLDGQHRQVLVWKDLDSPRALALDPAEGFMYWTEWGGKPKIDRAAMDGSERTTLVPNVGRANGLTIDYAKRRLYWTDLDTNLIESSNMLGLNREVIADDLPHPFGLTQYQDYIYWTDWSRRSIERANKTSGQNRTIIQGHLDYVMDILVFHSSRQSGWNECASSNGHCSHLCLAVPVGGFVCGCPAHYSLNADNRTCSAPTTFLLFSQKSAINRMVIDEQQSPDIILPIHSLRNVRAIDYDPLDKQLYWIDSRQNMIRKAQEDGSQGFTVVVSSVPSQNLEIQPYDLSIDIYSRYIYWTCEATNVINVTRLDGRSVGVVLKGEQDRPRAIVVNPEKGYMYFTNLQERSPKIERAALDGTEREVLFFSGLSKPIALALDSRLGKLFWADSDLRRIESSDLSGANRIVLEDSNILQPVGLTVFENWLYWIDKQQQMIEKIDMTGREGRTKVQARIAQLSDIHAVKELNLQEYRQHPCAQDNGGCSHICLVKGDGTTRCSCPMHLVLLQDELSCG

LRP6.E1-E2-Fc = LRP6.E1-E2-Fc (human); assay: ELISA
LRP6.E3-E4-Fc = target: T3, LRP6.E3-E4-Fc (human); assay: ELISA
T3 construct: also called LRP6.E3-4-Fc

[3] = target: T4, LRP6.E3-E4 fragment (biotinylated, His-tagged) (Homo sapiens (Human), UniProt O75581 629-1244, biotinylated (AviTag system)); assay: biolayer interferometry, immobilized LRP6 E3-E4 fragment; Wnt3a at 200 nM; association then dissociation phase
T4 construct: BLI antigen from baculovirus-infected insect cells; also called LRP6.E3-E4 protein; not shown: His tag and AviTag
T4 sequence: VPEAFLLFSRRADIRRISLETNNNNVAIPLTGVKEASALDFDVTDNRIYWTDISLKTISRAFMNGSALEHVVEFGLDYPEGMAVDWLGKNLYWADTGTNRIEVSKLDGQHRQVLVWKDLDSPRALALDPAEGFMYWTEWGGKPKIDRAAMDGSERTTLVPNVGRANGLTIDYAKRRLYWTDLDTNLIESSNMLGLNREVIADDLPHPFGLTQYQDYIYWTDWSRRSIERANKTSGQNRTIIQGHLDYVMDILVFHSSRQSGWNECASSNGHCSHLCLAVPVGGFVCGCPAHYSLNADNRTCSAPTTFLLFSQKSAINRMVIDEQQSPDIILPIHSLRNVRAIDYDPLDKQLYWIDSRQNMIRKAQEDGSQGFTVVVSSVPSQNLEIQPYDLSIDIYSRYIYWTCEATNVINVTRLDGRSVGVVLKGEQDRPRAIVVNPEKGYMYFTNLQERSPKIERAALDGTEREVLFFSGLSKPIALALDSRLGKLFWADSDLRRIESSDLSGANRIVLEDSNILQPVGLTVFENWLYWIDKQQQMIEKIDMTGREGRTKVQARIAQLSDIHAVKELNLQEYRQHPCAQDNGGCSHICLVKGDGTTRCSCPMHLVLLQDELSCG
Description: Biolayer interferometry was performed as previously described (Bourhis et al., 2010). Briefly, biotinylated, His-tagged LRP6 proteins were purified from baculovirus-infected insect cells using the AviTag system (GeneCopoeia). Binding kinetics were measured on the Octet RED System (ForteBio) using Streptavidin High Binding FA Biosensors loaded with 20 μg/ml LRP6 protein.
In these assays, antibody binding to LRP6 protein was allowed to reach equilibrium, and the subsequent wavelength shift in the interference pattern is shown for association and dissociation phases of Wnt protein binding.

T3 sequence (chain, as listed by the source limits assumed): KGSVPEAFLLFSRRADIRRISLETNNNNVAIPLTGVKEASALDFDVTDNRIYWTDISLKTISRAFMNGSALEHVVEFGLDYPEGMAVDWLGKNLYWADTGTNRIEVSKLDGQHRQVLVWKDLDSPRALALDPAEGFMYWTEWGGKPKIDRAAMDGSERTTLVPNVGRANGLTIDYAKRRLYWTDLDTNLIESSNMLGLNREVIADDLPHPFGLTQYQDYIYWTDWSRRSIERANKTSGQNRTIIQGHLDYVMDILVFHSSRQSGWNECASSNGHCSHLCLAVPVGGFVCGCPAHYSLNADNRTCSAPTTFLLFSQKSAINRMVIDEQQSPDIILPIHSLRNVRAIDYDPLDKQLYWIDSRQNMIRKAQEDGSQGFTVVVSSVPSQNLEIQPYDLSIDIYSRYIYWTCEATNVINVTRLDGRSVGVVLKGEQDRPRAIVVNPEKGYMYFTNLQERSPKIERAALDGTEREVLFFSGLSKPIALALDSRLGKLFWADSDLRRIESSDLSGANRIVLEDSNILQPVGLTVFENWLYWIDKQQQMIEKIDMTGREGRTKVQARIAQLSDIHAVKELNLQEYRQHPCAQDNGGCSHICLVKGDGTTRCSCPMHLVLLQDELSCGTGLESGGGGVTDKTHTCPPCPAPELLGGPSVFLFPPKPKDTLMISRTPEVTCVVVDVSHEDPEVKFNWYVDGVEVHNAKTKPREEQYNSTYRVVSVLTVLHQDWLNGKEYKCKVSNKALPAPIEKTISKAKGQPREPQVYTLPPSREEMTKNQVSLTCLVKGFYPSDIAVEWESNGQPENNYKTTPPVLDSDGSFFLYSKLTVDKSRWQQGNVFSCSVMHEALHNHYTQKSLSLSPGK
Sequence of LRP6.E1-E2-Fc (human) (chain, as listed by the source limits assumed): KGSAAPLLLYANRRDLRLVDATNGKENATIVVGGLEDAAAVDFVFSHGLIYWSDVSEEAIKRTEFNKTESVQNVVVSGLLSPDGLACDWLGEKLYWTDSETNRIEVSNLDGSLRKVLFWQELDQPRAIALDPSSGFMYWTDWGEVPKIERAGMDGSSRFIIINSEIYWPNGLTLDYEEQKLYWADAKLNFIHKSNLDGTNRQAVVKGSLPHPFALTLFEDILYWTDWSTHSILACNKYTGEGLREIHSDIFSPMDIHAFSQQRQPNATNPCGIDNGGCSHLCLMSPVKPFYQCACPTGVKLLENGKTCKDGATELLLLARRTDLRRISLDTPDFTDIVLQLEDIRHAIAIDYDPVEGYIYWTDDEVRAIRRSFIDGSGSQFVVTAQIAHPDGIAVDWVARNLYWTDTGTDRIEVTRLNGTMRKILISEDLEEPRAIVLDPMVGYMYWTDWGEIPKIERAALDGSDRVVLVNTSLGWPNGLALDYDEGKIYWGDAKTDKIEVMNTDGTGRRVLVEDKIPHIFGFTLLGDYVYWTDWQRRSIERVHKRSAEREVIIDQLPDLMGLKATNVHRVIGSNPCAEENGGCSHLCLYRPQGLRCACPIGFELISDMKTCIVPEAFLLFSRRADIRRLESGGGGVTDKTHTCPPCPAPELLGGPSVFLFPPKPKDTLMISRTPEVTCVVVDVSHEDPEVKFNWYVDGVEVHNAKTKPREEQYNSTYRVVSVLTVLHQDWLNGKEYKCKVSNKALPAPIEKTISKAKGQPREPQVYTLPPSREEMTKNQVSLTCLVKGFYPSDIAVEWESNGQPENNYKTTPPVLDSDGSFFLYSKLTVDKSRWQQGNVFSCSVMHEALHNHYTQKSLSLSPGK

Row | Binder | binding result (LRP6.E1-E2-Fc) | binding result (LRP6.E3-E4-Fc) | further results
1 | YW211.31.57 antibody (antibody, human IgG1, kappa, V domains shown) VH: EVQLVESGGGLVQPGGSLRLSCAASGFTFTSYYISWVRQAPGKGLEWVAEISPYSGSTYYADSVKGRFTISADTSKNTAYLQMNSLRAEDTAVYYCALRARPPIRLYPRGSVMDYWGQGTLVTVSS VL: DIQMTQSPSSLSASVGDRVTITCRASQDVSTAVAWYQQKPGKAPKLLIYSASFLYSGVPSRFSGSGSGTDFTLTISSLQPEDFATYYCQQSYTLPTTFGQGTKVEIKR | – | – | IC50, inhibition of signaling in Wnt3a-stimulated HEK293 cells (LRP6 on HEK293 cells): ~0.1 µg/ml and ~0.6 nM; Kd [1]: 0.27 nM
2 | YW211.31.11 antibody (antibody, V domains shown) VH: EVQLVESGGGLVQPGGSLRLSCAASGFTFGFYYLSWVRQAPGKGLEWVAEISPYSGSTYYADSVKGRFTISADTSKNTAYLQMNSLRAEDTAVYYCALRARPPIRLHPRGSVMDYWGQGTLVTVSS VL: DIQMTQSPSSLSASVGDRVTITCRASQDVSTAVAWYQQKPGKAPKLLIYSASFLYSGVPSRFSGSGSGTDFTLTISSLQPEDFATYYCQQSYAIPTTFGQGTKVEIKR | – | – | binding result [2]: binds
3 | YW211.11 antibody (antibody, V domains shown) VH: EVQLVESGGGLVQPGGSLRLSCAASGFTFTNYDIHWVRQAPGKGLEWVASIYPAGGDTDYADSVKGRFTISADTSKNTAYLQMNSLRAEDTAVYYCARSPGWALRGAMDYWGQGTLVTVSS VL: DIQMTQSPSSLSASVGDRVTITCRASQDVSTAVAWYQQKPGKAPKLLIYSASFLYSGVPSRFSGSGSGTDFTLTISSLQPEDFATYYCQQSYTTPPTFGQGTKVEIKR | no binding | binds | –
4 | YW211.03 antibody (antibody, V domains shown) VH: EVQLVESGGGLVQPGGSLRLSCAASGFTFTGYWIHWVRQAPGKGLEWVGTISPAGGSTDYADSVKGRFTISADTSKNTAYLQMNSLRAEDTAVYYCARTDWRFHHAGEYAMDYWGQGTLVTVSS VL: DIQMTQSPSSLSASVGDRVTITCRASQDVSTAVAWYQQKPGKAPKLLIYSASFLYSGVPSRFSGSGSGTDFTLTISSLQPEDFATYYCQQSYTTPPTFGQGTKVEIKR | no binding | binds | –
5 | YW211.12 antibody (antibody, V domains shown) VH: EVQLVESGGGLVQPGGSLRLSCAASGFTFTGNDIHWVRQAPGKGLEWVGRIYPYGGYTDYADSVKGRFTISADTSKNTAYLQMNSLRAEDTAVYYCAKEVTYHLFDYWGQGTLVTVSS VL: DIQMTQSPSSLSASVGDRVTITCRASQDVSTAVAWYQQKPGKAPKLLIYSASFLYSGVPSRFSGSGSGTDFTLTISSLQPEDFATYYCQQSYTTPPTFGQGTKVEIKR | no binding | binds | –
6 | YW211.08 antibody (antibody, V domains shown) VH: EVQLVESGGGLVQPGGSLRLSCAASGFTFTDYWIHWVRQAPGKGLEWVAGISPDGGSTYYADSVKGRFTISADTSKNTAYLQMNSLRAEDTAVYYCARWSYISRYFSSVMDYWGQGTLVTVSS VL: DIQMTQSPSSLSASVGDRVTITCRASQDVSTAVAWYQQKPGKAPKLLIYSASFLYSGVPSRFSGSGSGTDFTLTISSLQPEDFATYYCQQSYTTPPTFGQGTKVEIKR | no binding | binds | –
7 | YW211.33 antibody (antibody, V domains shown) VH: EVQLVESGGGLVQPGGSLRLSCAASGFTFSGSSISWVRQAPGKGLEWVGVISPSSGATYYADSVKGRFTISADTSKNTAYLQMNSLRAEDTAVYYCARWPAGAFLGYYGMDYWGQGTLVTVSS VL: DIQMTQSPSSLSASVGDRVTITCRASQDVSTAVAWYQQKPGKAPKLLIYSASFLYSGVPSRFSGSGSGTDFTLTISSLQPEDFATYYCQQSYTTPPTFGQGTKVEIKR | no binding | binds | –
8 | YW211.31.62 antibody (antibody, human IgG1, kappa, V domains shown) VH: EVQLVESGGGLVQPGGSLRLSCAASGFTFGYYYISWVRQAPGKGLEWVAEISPYSGSTYYADSVKGRFTISADTSKNTAYLQMNSLRAEDTAVYYCALRARPPIRLHPRGSVMDYWGQGTLVTVSS VL: DIQMTQSPSSLSASVGDRVTITCRASQDVSTAVAWYQQKPGKAPKLLIYSASFLYSGVPSRFSGSGSGTDFTLTISSLQPEDFATYYCQQSYTTPPTFGQGTKVEIKR | – | – | IC50, inhibition of signaling in Wnt3a-stimulated HEK293 cells (LRP6 on HEK293 cells): ~0.1 µg/ml and ~0.6 nM; Kd [1]: 0.17 nM
9 | YW211.31.35 antibody (antibody, V domains shown) VH: EVQLVESGGGLVQPGGSLRLSCAASGFTFGFYYISWVRQAPGKGLEWVAEISPYSGSTYYADSVKGRFTISADTSKNTAYLQMNSLRAEDTAVYYCALRARPPIRLHPRGSVMDYWGQGTLVTVSS VL: DIQMTQSPSSLSASVGDRVTITCRASQDVSTAVAWYQQKPGKAPKLLIYSASFLYSGVPSRFSGSGSGTDFTLTISSLQPEDFATYYCQQSYTTPPTFGQGTKVEIKR | – | – | binding result [2]: binds
10 | Wnt3a (ligand, human, UniProt P56704 19-352, looked up, also called purified human Wnt3a) SYPIWWSLAVGPQYSSLGSQPILCASIPGLVPKQLRFCRNYVEIMPSVAEGIKIGIQECQHQFRGRRWNCTTVHDSLAIFGPVLDKATRESAFVHAIASAGVAFAVTRSCAEGTAAICGCSSRHQGSPGKGWKWGGCSEDIEFGGMVSREFADARENRPDARSAMNRHNNEAGRQAIASHMHLKCKCHGLSGSCEVKTCWWSQPDFRAIGDFLKDKYDSASEMVVEKHRESRGWVETLRPRYTYFKVPTERDLVYYEASPNFCEPNPETGSFGTRDRTCNVSSHGIDGCDLLCCGRGHNARAERRREKCRCVFHWCCYVSCQECTRVYDVHTCK | – | – | binding result [3]: binds
